For assay [1], the target named is SARS-CoV-2 S protein S1 (SARS-CoV-2, ancestral (WT), UniProt P0DTC2). The experiment in a line: ELISA. As to conditions: both partners purified.
Assay [2] has as its target SARS-CoV-2 S protein receptor binding domain (RBD) (SARS-CoV-2, ancestral (WT), UniProt P0DTC2). Put plainly: crystal structure. The following applies: both partners purified.

B1: monoclonal antibody m31A7 (IgG) (antibody, V domains shown)
VH: EVQLQQSGPEMVKPGASVKISCKTSGYTFTEYTIYWVKQSHGKSLEWLGGINPNIGDTTYNQKFKGKATLTVDTSSSTAYMELRSLTSEDSAVYYCAREVYNYSFAYWGQGTLVTVSA
VL: DIVMSQSPSSLAVSVGEKVTMSCKSSQSLLYSSNQKNYLAWYQQKLGQTPKLLIYWASSRESGVPDRFTGSGSGTDFTLTISSVRAEDLAVYYCQQYYRYPLTFGVGTKLELK
Regarding B1, the binding result in assay [1] is given as “binds”.

B2: m31A7 Fab (Fab, V domains shown)
VH: EVQLQQSGPEMVKPGASVKISCKTSGYTFTEYTIYWVKQSHGKSLEWLGGINPNIGDTTYNQKFKGKATLTVDTSSSTAYMELRSLTSEDSAVYYCAREVYNYSFAYWGQGTLVTVSA
VL: DIVMSQSPSSLAVSVGEKVTMSCKSSQSLLYSSNQKNYLAWYQQKLGQTPKLLIYWASSRESGVPDRFTGSGSGTDFTLTISSVRAEDLAVYYCQQYYRYPLTFGVGTKLELK
Turning to B2, the binding result in assay [2] is reported as “binds”.

(Values after article PMC9802656 (Science Translational Medicine, 2022).)
